According to publication PMC3821859, “Role of the Acidic Tail of High Mobility Group Protein B1 (HMGB1) in Protein Stability and DNA Bending”:

Assays:
[1] = biological target: HMGB1ΔC (Homo sapiens, UniProt P09429 1-185, del186-215); test: fluorescence anisotropy; 50 nM DNA; sigmoidal dose-response fit; 10 mM Tris-HCl pH 7.5, 50 mM NaCl, 0.5 mM DTT, 0.1 mM EDTA, 5% glycerol; 25 °C (anisotropy); settings: protein: recombinant; tags: N-terminal 6xHis with TEV site, not removed; label: 5'-6-FAM on complementary strand; blunt
HMGB1ΔC, sequence (P09429 1-185, stated change not applied): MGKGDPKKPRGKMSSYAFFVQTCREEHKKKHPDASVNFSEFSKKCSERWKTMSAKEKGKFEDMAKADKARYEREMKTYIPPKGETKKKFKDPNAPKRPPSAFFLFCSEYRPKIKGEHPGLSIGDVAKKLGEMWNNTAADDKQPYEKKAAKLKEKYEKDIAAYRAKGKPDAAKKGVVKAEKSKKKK

[2] = biological target: HMGB1 (Homo sapiens, UniProt P09429 1-215); test: as above; settings: protein: recombinant; tags: N-terminal 6xHis with TEV site, not removed; label: 5'-6-FAM on complementary strand; blunt
HMGB1, sequence (P09429 whole entry): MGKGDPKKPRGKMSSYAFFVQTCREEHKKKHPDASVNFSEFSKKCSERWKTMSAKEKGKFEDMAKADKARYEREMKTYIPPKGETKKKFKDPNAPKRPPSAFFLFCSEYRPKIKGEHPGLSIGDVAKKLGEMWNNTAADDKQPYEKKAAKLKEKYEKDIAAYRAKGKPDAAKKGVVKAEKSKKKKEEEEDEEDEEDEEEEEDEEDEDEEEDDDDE

B1: 20-bp dsDNA, 6-FAM (dsDNA)
DNA 1: TACTGTATGAGCATACAGTA
DNA 2: TACTGTATGCTCATACAGTA
Work on B1 yielded a Kd [1] of 72 ± 4 nM and a Kd [2] of 88 ± 5 nM.
